“And” between values parts separate entries of the source, which are not always exact repeats. Equal values may be shown once.
Molecular target: DnaJ heat shock protein family (Hsp40) member B6 (DNAJB6), wild type (human) (UniProt O75190)
Assay: native MS; 37 μM DNAJB6 (plain or BS3-crosslinked) with 1 μM Aβ(1–40), 10 mM ammonium acetate pH 7; direct detection of DNAJB6 signals and complexes

DnaJ heat shock protein family (Hsp40) member B6 (DNAJB6), wild type, O75190-2 1-241 (natural protein; other documents disagree on this pair), sequence (O75190 other isoform, or with tags, fused parts or gaps): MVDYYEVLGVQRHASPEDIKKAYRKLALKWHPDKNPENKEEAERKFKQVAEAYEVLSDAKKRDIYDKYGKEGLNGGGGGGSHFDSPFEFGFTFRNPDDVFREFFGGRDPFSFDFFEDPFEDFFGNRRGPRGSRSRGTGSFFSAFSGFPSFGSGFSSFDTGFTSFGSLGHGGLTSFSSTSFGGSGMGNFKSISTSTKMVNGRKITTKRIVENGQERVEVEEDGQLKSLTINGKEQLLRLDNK

stoichiometry N: 2 and 3
Substance: DnaJ heat shock protein family (Hsp40) member B6 (DNAJB6), wild type, O75190-2 1-241 (natural protein; other documents disagree on this pair)
